This is an account of results in patent US20120082667A1 (IMMUNAS PHARMA, published 2012).

Assay [1] has as its target T1, A beta monomer prepared from synthetic A beta1-40 (TFA form), 0.1 mg/ml in PBS (UniProt P05067 672-711).
T1 construct: domain: A beta1-40; also called A beta1-40 monomer; A beta40 monomer
Description: competitive ELISA: antibody pre-incubated with soluble A beta1-40 monomer (inhibitor, varied), then binding to immobilised A beta1-40 oligomer read as OD450. (In an ELISA, binding on a coated surface is turned into a signal by an enzyme label.)

The target in assay [2] is T2, A beta oligomer prepared from synthetic A beta1-40 (HCl form), 0.1 mg/ml in PBS, incubated at 37 degrees C … (UniProt P05067 672-711).
T2 construct: domain: A beta1-40; non-fibrous assembly of A beta1-40; also called A beta1-40 oligomer; A beta40 oligomer
Briefly: competitive ELISA: antibody pre-incubated with soluble A beta1-40 oligomer (inhibitor, varied), then binding to immobilised A beta1-40 oligomer read as OD450.

Assay [3] deals with T3, synthesized A beta1-42 (UniProt P05067 672-713).
T3 construct: domain: A beta1-42; spotted in the dot blot as the second of the two types of oligomers; also called A beta42 oligomer
Briefly: dot blot: peptide spotted on nitrocellulose (0.1 micro g/dot), hybridoma culture supernatant, HRP anti-mouse IgG, ECL. On the procedure: (§1) Dot blot analysis was carried out for hybridomas that gave positive result for primary screening. […] The membrane was blocked with Tris Buffer containing 5% low-fat milk and 0.05% Tween-20, and reacted with hybridoma culture supernatants and detected with chemiluminescence kit (ECL) after reacting with HRP-conjugated anti-mouse IgG antibody.

The target in assay [4] is T1, A beta monomer prepared from synthetic …. Description: competitive ELISA: antibody pre-incubated with soluble A beta1-40 monomer (inhibitor, varied), then binding to immobilised A beta1-40 oligomer read as OD450. This is another data set of the same source.
Assay [5] concerns the target T2, A beta oligomer prepared from synthetic …. Briefly: competitive ELISA: antibody pre-incubated with soluble A beta1-40 oligomer (inhibitor, varied), then binding to immobilised A beta1-40 oligomer read as OD450. This is another data set of the same source.
The target in assay [6] is T3, synthesized A beta1-42. Description: dot blot, synthesized A beta1-42 spotted, hybridoma supernatant. On the procedure:
as §1

Assay [7] deals with T1, A beta monomer prepared from synthetic …. Description: dot blot: peptide spotted on nitrocellulose (0.1 micro g/dot), hybridoma culture supernatant, HRP anti-mouse IgG, ECL. On the procedure:
as §1

For assay [8], the target named is T2, A beta oligomer prepared from synthetic …. Described as above. On the procedure:
as §1

Changes are numbered by the printed parent chain.

B1: AL-209 antibody (antibody, IgG2a, V domains shown)
VH: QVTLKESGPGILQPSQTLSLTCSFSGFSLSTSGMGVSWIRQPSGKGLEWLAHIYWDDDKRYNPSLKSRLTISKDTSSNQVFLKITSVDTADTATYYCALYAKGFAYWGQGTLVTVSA
VL: DIQMTQSPSSLSASLGGKVTITCKASQDINKYIAWYQHKPGKGPRLLIHYTSTLQPGIPSRFSGSGSGRDYSFSISNLEPEDIATYYCLQYDNLYTFGGGTKLEIK
Turning to B1, the binding result (in assay [1]; in assay [2]; in the assay with synthesized A beta1-42 [3]) was “binds” each time.

B2: AL-233 antibody (antibody, IgG2b, V domains shown)
VH: DVQLQESGPDLVKPSQSLSLTCTVTGYSITSGYSWHWIRQFPGNKLEWMGYIHYSGSTNYNPSLKSRISITRDTSKNQFFLQLNSVTTEDTATYYCARRGYDGYYSWFAYWGQGTLVTVSA
VL: SQAVVTQESALTTSPGETVTLTCRSSTGAVTTSNYANWVQEKPDHLFTGLIGGTNNRAPGVPARFSGSLIGDKAALTITGAQTEDEAIYFCALWYSNHWVFGGGTKLTVLG
For the molecule B2, the binding result (with synthesized A beta1-42 [3]; in assay [4]; in assay [5]) was “binds” each time.

B3: AL-205 antibody (antibody, IgG2a, V domains shown)
VH: EVKLEESGGGLVQPGGSMKLSCVASGFTFSNYWMNWVRQSPEKGLEWVAEIRLKSNNYATHYAESVKGRFTISRDDSKSSVYLQMNNLRAEDTGIYYCTRGTRVWLRREAWFAYWGQGTLVTVSA
VL: not shown
Consider B3, for which, in the assay with synthesized A beta1-42 [6], the binding result is “binds”.

B4: AL-221 antibody (antibody, IgG2b, V domains shown)
VH: QVTLKESGPGILKPSQTLSLTCSFSGFSLSTSGMGVGWIRQPSGKGLEWLAHIWWDDDKYYNPSLKSQLTISKDTSRNQVFLKITSVDTADTATYYCARRSLSRDYFDYWGQGTTLTVSS
VL: DVLMTQTPLSLPVSLGDQASISCRSSQSIVHSNGNTYLEWYLQKPGQSPKLLIYKVSNRFSGVPDRFSGSGSGTDFTLKISRVEAEDLGVYYCFQGSHVPLTFGAGTKLELK
For B4, the binding result (in assay [7]; in assay [8]; in the assay with synthesized A beta1-42 [3]) was “binds” each time.

B5: AL-231 antibody (antibody, IgG2a, V domains shown)
VH: B4 VH with S101A, S103N, R104W, Y106V
VL: B4 VL
Regarding B5, the binding result (with synthesized A beta1-42 [3]; in assay [4]; in assay [5]) was “binds” each time.

B6: AL-204 antibody (antibody, V domains shown)
VH: EVQLVESGGGLVKPGGSLKLSCAASGFTFSDYYMYWVRQTPEKRLEWVATISDGGSYTYYPDSVKGRFTISRDNAKNNLYLQMSSLKSEDTAMYYCARAKYYRYDGGGAYAMDYWGQGTSVTVSS
VL: NIMMTQSPSSLAVSAGEKVTMSCKSSQSVLYSSNQKNYLAWYQQKPGQSPKLLIYWASTRESGVPDRFTGSGSGTDFTLTISSVQAEDLAVYYCHQYLSSYTFGGGTKLEIK
As to B6, the binding result with synthesized A beta1-42 [6] is recorded as “binds”.
